Data taken from publication PMC3026807.

Target: His221 (UniProt position 221, RKPFYHAFSFM)
Assay: electrophysiology
Conditions: Symmetrical high K+. Bath: standard solution with Na+ replaced equimolarly by K+ (140 mM extracellular K+). Pipette: 140 mM KCl.; 10 mM Hepes/Tris; MES for pH 5.0-6.5, AMPSO for pH 8.5-9.0, CAPS for pH 9.5-11.0; pHo gating in high symmetrical K+ (needed to restore currents of the double mutant)

Work on “TASK-3 (K2P9.1, KCNK9) H98N/V221H double mutant (Cavia porcellus; H98N;V221H)” yielded a pKa of 6.86±0.11.
